{
  "source": "patent US8431396B2",
  "about": "“Anti-angiogenic peptides” (The Cleveland Clinic Foundation, priority 2003, dated 2013)",
  "molecules": {"B1": {"name": "TIMP3: tissue inhibitor of metalloproteinases-3; recombinant human form expressed in NSO myeloma cells, or wild-type expressed in transfected cells (protein, listed as Homo sapiens)", "chain": "MTPWLGLIVLLGSWSLGDWGAEACTCSPSHPQDAFCNSDIVIRAKVVGKKLVKEGPFGTLVYTIKQMKMYRGFTKMPHVQYIHTEASESLCGLKLEVNKYQYLLTGRVYDGKMYTGLCNFVERWDQLTLSQRKGLNYRYHLGCNCKIKSCYYLPCFVTSKNECLWTDMLSNFGYPGYQSKHYACIRQKGGYCSWYRGWAPPDKSIINATDP"}},
  "key": {"[1]": {"test_system": "MDA-MB435 human breast carcinoma cells", "experiment": "Tumors from mice injected with MDA-MB435 cells transfected with TIMP3, von Willebrand factor staining", "assay_type": "in vivo", "settings": "von Willebrand factor immunostaining; TIMP3-transfected tumor cells", "source_text": "Brown reaction product depicts endothelial cells lining the vessels."}, "endothelial cells": {"test_system": "endothelial cells", "experiment": "DNA synthesis ([3H]thymidine uptake) of endothelial cells in response to VEGF165", "assay_type": "cell-based", "settings": "TIMP3 at 1 μg/ml and 10 μg/ml", "description": "(A) Proliferative response of PAE-KDR cells to VEGF165 (5 ng/ml; left) and VEGF121 (30 ng/ml; right). […] (C) DNA synthesis of endothelial cells in response to VEGF165. […] [3H]thymidine incorporation was measured during the last 5 h of incubation. (D) Analysis of endothelial cell expressing TIMP3. […] Expression of TIMP3 protein was determined by immunoblotting with antibody against TIMP3 (top left). MMP-inhibitory activity was determined by reverse zymography (top right). Corresponding densito-metric quantitation is expressed as arbitrary optical density (OD) units±s.d. (C) DNA synthesis in adenovirus-infected cells in response to VEGF. […] In all proliferation experiments, total number of cells was counted at 48 h. Proliferating cell number is expressed as means±s.e.m. of quadruplicate samples. DNA synthesis data represent the means±s.e.m. of triplicate samples; similar results were obtained in at least 2 different experiments. *, P<0.01.\n(§1) A modified Boyden chamber assay for migration and proliferation assays were carried out as described."}, "[2]": {"test_system": "MS1 mouse endothelial cells", "experiment": "MS1 endothelial cells infected with adenovirus expressing WT-TIMP3 or TIMP3Cys1-Ser: apoptosis and [3H]thymidine incorporation", "assay_type": "cell-based", "settings": "MS1 cells infected with wild-type or mutant virus", "description": "MS1 mouse endothelial cells\\(American Type Culture Collection, Manassas, Va.) were cultured until 80% confluent and infected with adenovirus as described. Cells were infected at 50 or 200 plaque-forming units per cell for 18 h. Medium was then replaced with fresh complete medium and left for 48 h until analysis.\nas §1"}, "ERK1 and ERK2": {"test_system": "ERK1 and ERK2", "experiment": "ERK1 and ERK2 phosphorylation (immunoblot)", "assay_type": "cell-based", "settings": "recombinant TIMP3", "description": "PDGF-BB-mediated phosphorylation was examined similarly in PAESPDGFR-β cells (anti-PDGFR-β; top right panel). […] PDGF-BB-mediated phosphorylation of PDGFR-β in PAE-PDGFR-β cells overexpressing TIMP3 (top right). KDR protein or PDGFR-β protein was analyzed by both immunoprecipitation and immunoblotting with antibodies specific for KDR (left) or for PDGFR-β (right; A and B, second panels from top). […] Total protein levels of ERK were determined by immunoblotting with antibodies specific for ERK1/2 (anti-ERK1/2; A and B, bottom).\nCell fractions, prepared as described earlier, or immunoprecipitates of the lysates with the indicated antibodies, were subjected to SDS-PAGE. Proteins were detected with horseradish peroxidase-conjugated antibodies specific for either rabbit or mouse IgG (Amersham Pharmacia, Piscataway, N.J.) followed by enhanced chemiluminescence."}, "KDR [3]": {"biological_target": "T1, KDR (Homo sapiens, UniProt P35968)", "T1 construct": "To determine whether these receptor isoforms represent full-length VEGFR-2; expressed in transfected cells; host or cells: porcine aortic endothelial (PAE) cells", "T1 sequence (P35968 20-1356)": "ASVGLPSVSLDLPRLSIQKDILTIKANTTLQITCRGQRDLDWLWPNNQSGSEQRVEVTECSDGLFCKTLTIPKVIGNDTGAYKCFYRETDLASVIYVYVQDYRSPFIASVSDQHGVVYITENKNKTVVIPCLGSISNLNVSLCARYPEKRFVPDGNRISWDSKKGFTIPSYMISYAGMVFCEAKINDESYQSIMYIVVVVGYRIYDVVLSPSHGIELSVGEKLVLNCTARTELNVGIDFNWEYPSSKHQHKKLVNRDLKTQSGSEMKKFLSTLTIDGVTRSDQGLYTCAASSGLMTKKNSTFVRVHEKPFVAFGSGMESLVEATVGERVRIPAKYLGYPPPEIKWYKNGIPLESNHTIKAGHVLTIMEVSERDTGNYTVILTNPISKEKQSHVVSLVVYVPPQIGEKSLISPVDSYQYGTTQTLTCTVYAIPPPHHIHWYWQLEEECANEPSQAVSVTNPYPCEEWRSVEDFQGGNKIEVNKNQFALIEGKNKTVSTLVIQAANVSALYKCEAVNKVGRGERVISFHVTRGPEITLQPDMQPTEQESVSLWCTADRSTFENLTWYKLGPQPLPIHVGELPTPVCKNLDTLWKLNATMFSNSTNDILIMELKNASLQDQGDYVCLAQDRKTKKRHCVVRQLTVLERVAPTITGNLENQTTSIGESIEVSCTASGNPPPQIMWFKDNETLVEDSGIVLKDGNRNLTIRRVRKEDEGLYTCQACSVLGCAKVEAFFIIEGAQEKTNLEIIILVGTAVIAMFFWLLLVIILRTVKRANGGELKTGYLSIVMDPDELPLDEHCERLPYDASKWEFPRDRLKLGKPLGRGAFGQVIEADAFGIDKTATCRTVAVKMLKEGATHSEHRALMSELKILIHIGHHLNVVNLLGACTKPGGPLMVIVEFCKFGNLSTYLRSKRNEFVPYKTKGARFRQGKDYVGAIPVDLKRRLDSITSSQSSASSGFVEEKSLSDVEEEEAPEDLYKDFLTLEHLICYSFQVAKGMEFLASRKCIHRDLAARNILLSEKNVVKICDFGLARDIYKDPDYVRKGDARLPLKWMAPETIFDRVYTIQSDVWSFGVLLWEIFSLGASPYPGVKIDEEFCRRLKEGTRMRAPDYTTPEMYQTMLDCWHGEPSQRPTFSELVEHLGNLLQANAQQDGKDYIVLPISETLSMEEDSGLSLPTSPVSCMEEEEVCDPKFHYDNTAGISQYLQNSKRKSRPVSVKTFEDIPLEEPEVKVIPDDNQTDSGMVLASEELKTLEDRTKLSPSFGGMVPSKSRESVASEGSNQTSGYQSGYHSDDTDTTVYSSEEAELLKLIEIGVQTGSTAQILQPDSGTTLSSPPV", "experiment": "[125I]VEGF binding to the surface of PAE-KDR cells", "settings": "pretreatment with recombinant protein", "description": "(§2) Radioligand binding is expressed as percent binding and is the mean±s.e.m. of triplicate samples. […] All values are expressed as mean±s.e.m. of triplicate samples. […] Binding is expressed as mean±s.e.m.\n(§3) Data were analyzed by Scatchard plot analyses."}, "PDGFR-β": {"biological_target": "T2, PDGFR-β (Homo sapiens, UniProt P09619)", "T2 construct": "expressed in transfected cells; host or cells: porcine aortic endothelial (PAE) cells", "T2 sequence (P09619 33-1106, species assumed)": "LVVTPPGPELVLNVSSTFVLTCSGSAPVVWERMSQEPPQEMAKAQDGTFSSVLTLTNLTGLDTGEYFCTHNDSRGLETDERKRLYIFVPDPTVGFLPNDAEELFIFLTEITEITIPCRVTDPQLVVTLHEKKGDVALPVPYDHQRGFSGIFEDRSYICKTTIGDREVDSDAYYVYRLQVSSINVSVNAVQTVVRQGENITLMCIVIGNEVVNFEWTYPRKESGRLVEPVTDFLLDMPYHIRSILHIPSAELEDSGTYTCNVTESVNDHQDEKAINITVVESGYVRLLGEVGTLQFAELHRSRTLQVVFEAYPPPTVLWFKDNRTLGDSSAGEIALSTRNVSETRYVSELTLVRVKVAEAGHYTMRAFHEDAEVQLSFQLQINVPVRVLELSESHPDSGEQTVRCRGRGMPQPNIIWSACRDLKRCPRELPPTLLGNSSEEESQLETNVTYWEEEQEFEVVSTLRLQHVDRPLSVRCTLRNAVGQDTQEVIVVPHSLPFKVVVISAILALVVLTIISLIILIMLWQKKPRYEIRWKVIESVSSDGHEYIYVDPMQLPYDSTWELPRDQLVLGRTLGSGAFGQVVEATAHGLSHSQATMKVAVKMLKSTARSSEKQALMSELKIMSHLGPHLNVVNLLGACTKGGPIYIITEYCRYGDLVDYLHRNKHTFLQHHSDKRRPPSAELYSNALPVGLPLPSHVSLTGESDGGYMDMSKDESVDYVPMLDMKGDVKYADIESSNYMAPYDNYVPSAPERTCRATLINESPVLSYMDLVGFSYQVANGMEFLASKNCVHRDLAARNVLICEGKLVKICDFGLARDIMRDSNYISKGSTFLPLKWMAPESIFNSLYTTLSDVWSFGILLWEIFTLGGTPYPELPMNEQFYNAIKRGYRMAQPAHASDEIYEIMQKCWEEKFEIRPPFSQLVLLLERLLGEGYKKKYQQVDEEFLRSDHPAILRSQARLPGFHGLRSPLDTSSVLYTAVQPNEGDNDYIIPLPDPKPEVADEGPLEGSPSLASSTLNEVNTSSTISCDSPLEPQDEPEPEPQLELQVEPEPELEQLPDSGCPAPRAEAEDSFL", "experiment": "[125I]PDGF-BB binding to PAE-PDGFR-β cells", "settings": "recombinant TIMP3 or overexpression", "description": "as §2, §3"}, "soluble FLT1-IgG": {"biological_target": "T3, soluble FLT1-IgG (Homo sapiens, UniProt P17948)", "T3 construct": "purchased R&D Systems", "T3 sequence (P17948 27-758 limits assumed)": "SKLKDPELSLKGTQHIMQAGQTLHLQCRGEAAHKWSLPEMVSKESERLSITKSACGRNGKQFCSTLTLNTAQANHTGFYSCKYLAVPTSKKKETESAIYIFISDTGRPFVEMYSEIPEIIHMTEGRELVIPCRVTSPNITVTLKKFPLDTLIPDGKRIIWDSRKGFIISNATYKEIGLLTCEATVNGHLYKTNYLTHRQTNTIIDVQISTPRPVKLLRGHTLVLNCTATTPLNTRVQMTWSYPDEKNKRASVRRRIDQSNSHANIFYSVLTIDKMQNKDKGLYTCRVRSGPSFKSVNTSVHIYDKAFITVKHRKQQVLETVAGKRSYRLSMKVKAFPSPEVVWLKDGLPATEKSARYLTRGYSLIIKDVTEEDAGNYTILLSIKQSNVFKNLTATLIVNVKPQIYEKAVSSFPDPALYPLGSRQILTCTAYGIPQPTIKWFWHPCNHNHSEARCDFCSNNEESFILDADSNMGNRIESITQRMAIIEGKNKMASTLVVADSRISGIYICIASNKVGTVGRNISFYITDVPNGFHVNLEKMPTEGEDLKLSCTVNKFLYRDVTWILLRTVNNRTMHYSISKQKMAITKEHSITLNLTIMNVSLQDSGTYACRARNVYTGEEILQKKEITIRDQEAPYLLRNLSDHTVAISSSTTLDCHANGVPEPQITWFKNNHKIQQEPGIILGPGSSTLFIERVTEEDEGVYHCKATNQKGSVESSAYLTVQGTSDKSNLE", "experiment": "Solid-phase binding of [125I]VEGF165 to soluble FLT1-IgG", "settings": "similar doses as for KDR-IgG", "description": "(B) Expression of KDR in the lysate and plasma membrane (PM) of PAE-KDR and PAE-KDR-TIMP3 was analyzed by immunoprecipitation (Ip) and western blot (Ib) analysis with antibody specific for KDR. […] Values are the mean±s.e.m. of triplicate wells.\nSoluble KDR-Fc or FLT1-Fc (50 ng) was added to each well. […] After washing, the bound protein was solubilized with 1% SDS and 1 M NaOH and radioactivity measured in a γ-counter."}, "KDR [4]": {"biological_target": "T1, KDR", "experiment": "VEGF-stimulated KDR tyrosine phosphorylation in membrane fractions (Western blot)", "assay_type": "cell-based", "settings": "WT-TIMP3 cells; data not shown", "description": "2 day serum free conditioned medium (CM) was collected from subconfluent cells cultured on six-well plates (Costar). In some cases the CM was further concentrated with heparin-agarose gels (Bio-rad). The cell monolayer was dislodged from the culture plates following a 10 min incubation in Ca2+, Mg2+ free phosphate buffered saline (PBS) containing 2.5 mM EDTA. After several rinses in PBS and water, the ECM was scraped in a small volume of electrophoresis sample buffer without reducing agent for analyses. Plasma membrane (PM) fractions were prepared from cells centrifuged at 500 g and 4° C. for 5 min The supernatant was discarded and the cell pellets were resuspended in PBS containing protease inhibitors, lysed with a 26-gauge syringe needle, and centrifuged at 3,000 g at 4° C. for 15 minutes. The supernatant was centrifuged at […] at 4° C. for 1 hr. The PM pellets were suspended in lysis buffer containing protease inhibitors. In some instances the membrane fraction of cells was prepared using ProteoExtract Subcellular Proteome Extaction Kit (EMD Biosciences, Inc).\nCell fractions or immunoprecipitates of the lysates with the indicated antibodies were subjected to SDS-PAGE. Proteins were detected with either a HRP-conjugated anti-rabbit or anti mouse IgG antibody (Amersham Pharmacia Biotech., Piscataway, N.J.) followed by ECL. […]"}, "MMPs": {"test_system": "MMPs", "experiment": "Reverse zymography of ECM and CM of transfected PAEKDR cells", "assay_type": "biochemical", "settings": "PAEKDR cells expressing WT or mutant TIMP3", "description": "Conditioned medium, cell lysates and ECM fractions from transfected cells were prepared as described previously (Qi et al., 2002). Equal amounts of protein were loaded onto a 12% gel with 1 mg/ml gelatin plus RPE cell-conditioned media, as a source of MMPs, for reverse zymography and processed as described previously (Pavloff et al., 1992)."}, "PAEKDR cells": {"test_system": "PAEKDR cells", "experiment": "VEGF-stimulated proliferation ([3H]thymidine) of transfected PAEKDR cells", "assay_type": "cell-based, porcine", "settings": "VEGF 15 ng/ml", "description": "Cells were seeded at a density of 5000 cells/well in 24 well culture plates and cultured for 24 h in growth medium. […] High molecular weight DNA was precipitated using 5% trichloroacetic acid at 4° C. for 30 min After two washes with ice-cold H2O, 3H radioactivity was solubilized in 1 N NaOH for 20 min at room temperature, acidified by addition of 2 N HCl, and measured using a liquid scintillation counter. Each sample was assayed in triplicate and the assays were repeated at least twice."}},
  "data": [
    {"molecule": "B1", "values": [
      {"measurement": "neovascularization of tumors expressing TIMP3 vs control tumors", "setting": "[1]", "result": "decrease in neovascularization"},
      {"measurement": "inhibition of DNA synthesis in response to VEGF165 ([3H]thymidine uptake)", "setting": "endothelial cells", "result": "could also inhibit DNA synthesis"},
      {"measurement": "apoptosis after adenovirus infection", "setting": "[2]", "result": "No apoptosis was observed"},
      {"measurement": "downstream phosphorylation of ERK1 and ERK2 in response to VEGF", "setting": "ERK1 and ERK2", "result": "inhibited in response to VEGF"},
      {"measurement": "IC50 for inhibition of [125I]VEGF binding to PAE-KDR cells", "setting": "KDR [3]", "result": "3.3 to 4.5", "unit": "µg/mL"},
      {"measurement": "inhibition of PDGF-BB binding to PAE-PDGFR-β cells", "setting": "PDGFR-β", "result": "Neither recombinant TIMP3 nor overexpression of TIMP3 could inhibit binding of PDGF-BB"},
      {"measurement": "inhibition of [125I]VEGF binding to soluble FLT1-IgG", "setting": "soluble FLT1-IgG", "result": "could not inhibit"},
      {"measurement": "receptor autophosphorylation after VEGF stimulation", "setting": "KDR [4]", "result": "no receptor autophosphorylation was seen"},
      {"measurement": "MMP inhibitory activity in ECM and CM (reverse zymography)", "setting": "MMPs", "result": "marked MMP inhibitory species"},
      {"measurement": "VEGF-stimulated proliferation of cells expressing TIMP3 variant", "setting": "PAEKDR cells", "result": "dramatic attenuation in the VEGF response"}
    ]}
  ]
}
